# Laboratory results reported in patent US7700353B2, “Compositions and methods for inducing apoptosis in tumor cells” (E-P Therapeutics, Inc., priority 1998, dated 2010).
# B1: hEb: chemically synthesized human Eb peptide of pro-IGF-I, 77 amino acid residues (SEQ ID NO:1) (peptide, listed as Homo sapiens)
# chain: RSVRAQRHTDMPKTQKYQPPSTNKNTKSQRRKGWPKTHPGGEQKEGTEASLQIRGKKKEQRREIGSRNAECRGKKGK
# B2: rtEa-4: recombinant Ea-4 peptide of rainbow trout pro-IGF-I, 74 amino acid residues (SEQ ID NO: 2) (protein)
# chain: RSVRAQRHTDMPRTPKVSTAVQNVDRGTERRTAQHPDKTKTKKKPLSGHSHPSCKEVHQKNSSRGNTGGRNYRM
# modifications: Oncorhynchus mykiss
# Experiments:
# [1] = tested on: neuroblastoma SK-N-F1 cells; experiment: Soft agar colony formation (hEb peptide); format: cell-based, human; conditions: 3.2 μM
# Procedure: The effect of hEb-peptide on in vitro colony formation was tested in the presence or absence of either the mature hlGF-I or fetal bovine serum (FIG. 12). Human neuroblastoma SK-N-F1 cells (10^4) were mixed with 0.4% soft agar supplemented with or without hEb peptide (3.2 µM), IGF-I (5 nM) and/or fetal bovine serum (2.5%), as indicated. The cell mixtures were seeded on top of a solidified basal medium DMEM/F12 (1:1) containing 0.5% agar. Medium supplemented with various peptides or serum were overlaid on top of the solidified cell layer followed by a two-week period incubation at 37° C. in a 5% CO2 humidified incubator. The percentage of cells formed into colonies with a diameter greater than 100 µm Macpherson, Tissue culture methods and applications, pp 276-80: N.Y. Academic Press, 1973) were scored in triplicate and subjected to Student t-test analysis. At least three independent assays under each treatment conditions were carried out.
# [2] = tested on: SK-N-F1 neuroblastoma cells; experiment: Neurite-like process outgrowth / morphological differentiation; format: cell-based, human; conditions: 2 h
# [3] = tested on: activated caspase-3 in MDA-MB-231(C); experiment: Activated caspase-3 staining; format: cell-based, human; conditions: about 1.5 μM, about 48 hours
# Procedure: FIG. 24 depicts the effect of rtEa4-peptide on induction of apoptosis in MDA-MB-231 cells treated with rtEa4-peptide. (A) Detection of apoptosis by TUNEL assay; (B) Detection of apoptosis y detecting the induction of the activated caspase-3 activity. MDA-MB-231 cells were treated with about 1.5 μM of rtEa4-peptide for about 48 hours, fixed and subjected to TUNEL assay or stained with anti-human activated caspase-3 serum conjugated with rhodamine. Hydrogen peroxide (H2O2), 0.5 mM, was used to induce apoptosis as a positive control.
# Induction of caspase-3 has been widely used as an indicator of cells undergoing apoptosis.
# [4] = tested on: 293GP cells; experiment: Cell attachment assay; format: cell-based, human; conditions: 0.8 μM, serum-free medium, four days, after shaking
# Procedure: To confirm whether treatment of transformed cells with the Ea-4 peptide could result in increased attachment of the cells to the culture dish, 293GP cells were cultured in a serum-free basal medium supplemented with Ea-4-peptide (0.8 µM) or 10% FBS, respectively, in 6-well culture chambers. After four days, the culture medium was removed, and cells were rinsed twice with PBS containing 0.02% EDTA, fresh PBS was added, and the culture plates shaken 20 times manually.
# [5] = tested on: 293GP or ZR-75-1 cells; experiment: Morphological change by Ea-2, Ea-3, Ea-4 peptides; format: cell-based, human; conditions: 0.8 μM, 24 hours
# Procedure: Approximately 1-2×10^5 of MCF-7, ZR-75-1, HT-29, HepG2, 293GP, HC or SK-N-F1 cells re-suspended in their respective basal medium without fetal bovine serum (FBS) were plated in a 6-well culture chamber. Prior to plating cells, an acid-washed coverslip was placed in each well of the culture chamber. Recombinant rainbow trout E-peptides (rtEa-2, rtEa-3 or rtEa-4 peptide at 0.8 µM), human IGF-I (hIGF-1, 2.5 nM) or the same amount of control protein was added to each well and the cell cultures were incubated at 37° C. under a humidified atmosphere of 5% CO2. The control protein was prepared from E. coli cells carrying the expression plasmid but without the E-peptide gene according to the purification method described by Tian et al. (1999). Coverslips were removed from the culture chamber 24 hours after initiation of the treatment and observed under an Olympic inverted microscope equipped with differential interference phase contrast objective lenses or phase contrast objective lens (final magnification, 200×). The morphological change assay was performed at least 10 times with different batches of Ea-4 peptide preparations.
# Cells were again cultured as described above. Twenty-four hours after treatment with 0.8 µM of E-peptides or the control protein, the cells were observed under an Olympic inverted microscope equipped with differential interference phase contrast objective lenses (200× magnification). […] To confirm this hypothesis, synthetic peptides specific to Ea-1-, Ea-2-, Ea-3- and Ea-4-peptide (Ea-1sp, Ea-2sp, Ea-3sp and Ea-4sp) specific sequence (see FIG. 1) were prepared and tested for their activities to induce morphological change in ZR-75-1 cells. For FIG. 6, cells were cultured in F12/DME medium without FBS as described above. Twenty-four hours after treatment with 0.8 µM of synthetic peptide containing Ea-1 sp, Ea-2sp, Ea-3sp or Ea-4sp specific sequence or the control protein, the cells were observed under an Olympic inverted microscope equipped with differential interference phase contrast objective lenses (200× magnification).
# [6] = tested on: HT-29 or MDA-MB-231 cells; experiment: Colony formation assay in semi-solid medium (Ea-4 peptide); format: cell-based, human; conditions: increasing concentrations (0.4 to 1.6 μM), 1.25% FBS, vs control protein
# Procedure: Colony formation assays were conducted following the method described by Yang (1975). About 2×10^4 of HT-29 (colon cancer cells) or MDA-MB-231 cells (aggressive breast cancer cells) at log phase were plated in their respective basal medium containing 1.25% FBS and 0.5% purified agar (Difco laboratories), and supplemented with various concentrations (0.4 to 1.6 µM) of the recombinant rainbow trout Ea-4 peptide, or the same amount of the control protein, in 6-well culture chambers. After the medium is solidified, each well is overlaid with 1 mL of the basal medium (containing 1.25% FBS) supplemented with same concentration of the trout Ea-4 peptide. The plates were incubated at 37° C. in a humidified incubator with 5% CO2 and examined daily under an inverted microscope for 2-3 weeks. Colonies were observed under an Olympic inverted microscope equipped with phase contrast objective lenses (final magnification: 40×). Colonies with sizes ≥50 µm were scored. The viability of cells at the conclusion of the experiment was confirmed by dye extrusion assay with tryptan blue. The assay was conducted two times.
# [7] = tested on: ovarian cancer cells (SKOV-3); experiment: Apoptosis observed under microscope; format: cell-based, human; conditions: 0.1-3.4 μM, 4 hours
# Procedure: FIG. 22 depicts apoptosis in ovarian cancer cells (SKOV) induced by various amounts of rtEa4-peptide. SKOV cells were treated with various amounts (0.1-3.4 μM) for 4 hours and observed under a microscope. Arrows indicate apoptotic cells.
# Killing of cancer cells by E-peptide could be the consequence of apoptosis or necrosis. To differentiate these two possibilities, MDA-MB-231 (C) cells were grown in culture in the presence of about 1.5 μM of trout Ea4-peptide. After about two hours of incubation the cells were observed under a microscope. […] FIG. 22 presents the results of the effect of trout Ea4-peptide on induction of apoptosis in ovarian cancer cells (SKOV-3).
# [8] = tested on: cultured BALB/3T3 fibroblast; conditions: recombinant peptides; cited from earlier work
Molecule,"inhibition of colony formation ([1]; absence of serum and growth factors, colonies >100 μm)",inhibitory effect on anchorage-independent growth ([1]; over all medium conditions),inhibition of colony formation ([1]; presence of FBS (2.5%)),inhibition of colony formation ([1]; presence of hIGF-I (5 nM)),Neurite length ([2]; 0.4 μM),Neurite length ([2]; 1.6 μM),Neurite length ([2]; 3.2 μM),level of activated caspase-3 activity [3],attachment of cells to the culture chamber [4],induction of morphological change [5],colonies developed in soft agar medium [6],apoptosis (microscopy) [7],mitogenic activity [8]
B1,64%,59-73%,73%,59%,30 ± 1.6 μm,33 ± 3.8 μm,33 ± 2.8 μm,–,–,–,–,–,–
B2,–,–,–,–,–,–,–,induced,remained attached to the culture chamber,able to induce morphological change,fewer colonies,dose-dependent induction of apoptosis,possess mitogenic activity
